Results: patent US20240002500A1 (GUANGDONG FAPON BIOPHARMA, published 2024)
Each block holds one binder with its values, some of them ahead of it.

Legend:
hTIGIT-hFc [1] = target: T1, hTIGIT-hFc (human, UniProt Q495A1 22-141); experiment: FACS blocking: antibody preincubated with hTIGIT-hFc, then CHO-hPVR cells; unit as printed on the axis, Log(uM); the same range is labelled nM in Fig. 4A and the method's top concentration of 40 µg/mL fits nM
T1 construct: also called antigen protein hTIGIT-hFc; human TIGIT recombinant protein carrying a human Fc tag; not shown: human Fc tag
T1 sequence (looked up): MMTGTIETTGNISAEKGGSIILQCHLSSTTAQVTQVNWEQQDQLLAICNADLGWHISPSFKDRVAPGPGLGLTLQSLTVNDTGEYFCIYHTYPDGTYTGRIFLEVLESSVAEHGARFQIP
Procedure: The CHO-engineered cells CHO-hPVR cells recombinantly expressing full-length human PVR were counted centrifugated at 300 g for 5 min, resuspended with an FCM buffer, the cells were added to the 96-well V-shaped plate; the volume of each cell added into a 96-well V-shaped plate was 2E+05 cell/well (being added in 50 μL/well); and incubation was performed in dark on ice for 30 min. Centrifugation (300 g/5 min) was performed; supernatant was discarded; 200 μL of the FCM buffer was added for washing once; centrifugation (300 g/5 min) was performed; and the supernatant was discarded. Secondary antibodies (PE anti-human IgG Fc, 1:500 dilution) were added to the 96-well V-shaped plate (in 100 μL/well); and incubation was performed in dark on ice for 30 min. Centrifugation (300 g/5 min) was performed; supernatant was discarded; 200 μL of the FCM buffer was added for washing once; centrifugation (300 g/5 min) was performed; and the supernatant was discarded. 100 μL of the 1×PBS was added for resuspending, and on-machine detection was performed.

hTIGIT-hFc [2] = target: T1, hTIGIT-hFc; experiment: FACS blocking: hTIGIT-hFc bound on U2-OS cells (PVR and CD112), then antibody, APC anti-human IgG Fc
Procedure: (§1) U2-OS cells to be detected (human osteosarcoma cells, naturally and highly expressing PVR and CD112 by means of detection) were counted; centrifugated at 300 g for 5 min; resuspended with an FCM buffer; and cell density was adjusted to 4E+06 cell/mL for later use. […] According to an experimental design, in each well, 50 μL of the antigen protein and 50 μL of the cell (the volume of each cell added into a 96-well V-shaped plate being 2E+05 cell/well) were respectively added in the 96-well V-shaped plate; and incubation was performed in dark on ice for 30 min. Centrifugation (300 g/5 min) was performed; supernatant was discarded; 200 μL of the FCM buffer was added for washing once; centrifugation (300 g/5 min) was performed; and the supernatant was discarded. The antibody was added to the 96-well V-shaped plate (in 100 μL/well); and incubation was performed in dark on ice for 30 min. Centrifugation (300 g/5 min) was performed; supernatant was discarded; 200 μL of the FCM buffer was added for washing once; centrifugation (300 g/5 min) was performed; and the supernatant was discarded. Secondary antibodies (APC anti-human IgG Fc, 1:500 dilution) were added to the 96-well V-shaped plate (in 100 μL/well); and incubation was performed in dark on ice for 30 min. […]

[3] = target: T2, full-length human TIGIT on cells (human, UniProt Q495A1 22-244); experiment: FACS titration on PBMC of healthy people (natural TIGIT), PE goat anti-mouse IgG; number as printed beside the name, the marker of the legend lies on the leftmost curve
T2 construct: whole, on cells; The same protein is used for CHO-hTIGIT, PBMC and NK92-hTIGIT; the cells are named under assay; also called CHO-hTIGIT; hTIGIT
T2 sequence (looked up): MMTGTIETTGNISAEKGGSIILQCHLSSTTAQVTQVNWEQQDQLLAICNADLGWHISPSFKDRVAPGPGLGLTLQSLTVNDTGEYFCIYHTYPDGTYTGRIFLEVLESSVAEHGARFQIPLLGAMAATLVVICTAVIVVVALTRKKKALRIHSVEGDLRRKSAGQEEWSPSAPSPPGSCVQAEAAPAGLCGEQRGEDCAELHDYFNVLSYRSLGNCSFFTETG
Procedure: In order to verify that the prepared anti-human TIGIT antibody may effectively bind to naturally expressed TIGIT, the following experiments were specifically performed. PBMC cells in healthy people to be detected were counted, centrifuged at 300 g for 5 min, resuspended with an FCM buffer; and cell density was adjusted to 4E+06 cell/mL for later use. Samples to be detected (including a positive control antibody and a mouse monoclonal antibody) were diluted with the FCM buffer to 20 μg/mL, and then the FCM buffer was used to perform 3× serial dilutions of 12 concentration points; and the isotype control antibody was diluted with the FCM buffer to 20 μg/mL. According to an experimental design, in each well, 50 μL of the antibody and 50 μL of the cell (the volume of each cell added into a 96-well V-shaped plate being 2E+05 cell/well) were respectively added in the 96-well V-shaped plate; and incubation was performed in dark on ice for 30 min. Centrifugation (300 g/5 min) was performed; supernatant was discarded; 200 μL of the FCM buffer was added for washing once; centrifugation (300 g/5 min) was performed; and the supernatant was discarded. […] Centrifugation (300 g/5 min) was performed; supernatant was discarded; 200 μL of the FCM buffer was added for washing once; centrifugation (300 g/5 min) was performed; and the supernatant was discarded. […]

hTIGIT-hFc [4] = target: T1, hTIGIT-hFc; experiment: FACS blocking: hTIGIT-hFc bound on U2-OS cells (PVR and CD112), then antibody, APC anti-human IgG Fc; first row of the table, row head not printed (fits the midpoint of the Tigit-5 curve; like table in Fig. 6A); unit from the x axis Log[µg/mL]
Procedure: as §1

- IC50 (read off the curve) (hTIGIT-hFc [1]): ~1 nM
- IC50 (hTIGIT-hFc [2]): 2.52 nM
- EC50 [3]: 0.179 nM
B1: 14Tigit-1-1 mouse monoclonal antibody (antibody, V domains shown)
VH: DVQLQESGPGLVKPSQSLSLTCTVTGYSITSDYAWNWIRQFPGNKLEWMGYISYSGSTRSNPSLKSRISITRDTSKNQFFLQLNSMTAEDTATYYCGGWEVRNYYAMDYWGQGTSVTVSS
VL: DIVMTQSHKFMSTSVGDRVSITCKASQHVSTAVAWYQQKPGQSPKLLIYSASYRYTGVPDRFTGSGSGTDFTFTISSVQAEDLAVYYCQQHYNTPWTFGGGTKLEIKR
notes: Mouse monoclonal antibody from hybridoma

- IC50 (hTIGIT-hFc [4]): 0.335 µg/mL
B2: Tigit-5 mouse monoclonal antibody (antibody, V domains shown)
VH: QVQLQQPGAELVRPGASVKLSCKASGYSFTSYWMNWVKQRPGQGLEWIGMIRPSDSETRLNQMFKDKATLTVDKSSSTAYMQLSSPTSDDSAVYYCAGIHDYGHGAYWGQGTLVTVSA
VL: DIQMIQSPASLSVSVGETVTITCRASENIYSNLAWYQQKQGKSPQLLVYAASHLPDGVPSRFSGSGSGTQYSLKINSLQSEDFGSYYCQHFWGTPRTFGGGTKLEIKR
notes: as for B1
